Measured values as given in paper PMC3387196.

Biological target: Nedd4 (UniProt P46935)
Experiment: anti-FLAG co-IP, Ala mutants
Conditions: reference: wild type; sites T1859,S1962

Kif26b (from UniProt Q7TNC6) T1859A/S1962A
binding against the reference: weaker
